The values that follow are results of earlier work, collected in PMC5075297.

In data set [1] the target is tropoelastin (Homo sapiens) (UniProt P15502).
The target in data set [2] is type I collagen (Homo sapiens) (UniProt P02452).
For data set [3], the target named is cellular fibronectin (Homo sapiens) (UniProt P02751).
Sequence of UniProt P02751 (P02751 32-2477): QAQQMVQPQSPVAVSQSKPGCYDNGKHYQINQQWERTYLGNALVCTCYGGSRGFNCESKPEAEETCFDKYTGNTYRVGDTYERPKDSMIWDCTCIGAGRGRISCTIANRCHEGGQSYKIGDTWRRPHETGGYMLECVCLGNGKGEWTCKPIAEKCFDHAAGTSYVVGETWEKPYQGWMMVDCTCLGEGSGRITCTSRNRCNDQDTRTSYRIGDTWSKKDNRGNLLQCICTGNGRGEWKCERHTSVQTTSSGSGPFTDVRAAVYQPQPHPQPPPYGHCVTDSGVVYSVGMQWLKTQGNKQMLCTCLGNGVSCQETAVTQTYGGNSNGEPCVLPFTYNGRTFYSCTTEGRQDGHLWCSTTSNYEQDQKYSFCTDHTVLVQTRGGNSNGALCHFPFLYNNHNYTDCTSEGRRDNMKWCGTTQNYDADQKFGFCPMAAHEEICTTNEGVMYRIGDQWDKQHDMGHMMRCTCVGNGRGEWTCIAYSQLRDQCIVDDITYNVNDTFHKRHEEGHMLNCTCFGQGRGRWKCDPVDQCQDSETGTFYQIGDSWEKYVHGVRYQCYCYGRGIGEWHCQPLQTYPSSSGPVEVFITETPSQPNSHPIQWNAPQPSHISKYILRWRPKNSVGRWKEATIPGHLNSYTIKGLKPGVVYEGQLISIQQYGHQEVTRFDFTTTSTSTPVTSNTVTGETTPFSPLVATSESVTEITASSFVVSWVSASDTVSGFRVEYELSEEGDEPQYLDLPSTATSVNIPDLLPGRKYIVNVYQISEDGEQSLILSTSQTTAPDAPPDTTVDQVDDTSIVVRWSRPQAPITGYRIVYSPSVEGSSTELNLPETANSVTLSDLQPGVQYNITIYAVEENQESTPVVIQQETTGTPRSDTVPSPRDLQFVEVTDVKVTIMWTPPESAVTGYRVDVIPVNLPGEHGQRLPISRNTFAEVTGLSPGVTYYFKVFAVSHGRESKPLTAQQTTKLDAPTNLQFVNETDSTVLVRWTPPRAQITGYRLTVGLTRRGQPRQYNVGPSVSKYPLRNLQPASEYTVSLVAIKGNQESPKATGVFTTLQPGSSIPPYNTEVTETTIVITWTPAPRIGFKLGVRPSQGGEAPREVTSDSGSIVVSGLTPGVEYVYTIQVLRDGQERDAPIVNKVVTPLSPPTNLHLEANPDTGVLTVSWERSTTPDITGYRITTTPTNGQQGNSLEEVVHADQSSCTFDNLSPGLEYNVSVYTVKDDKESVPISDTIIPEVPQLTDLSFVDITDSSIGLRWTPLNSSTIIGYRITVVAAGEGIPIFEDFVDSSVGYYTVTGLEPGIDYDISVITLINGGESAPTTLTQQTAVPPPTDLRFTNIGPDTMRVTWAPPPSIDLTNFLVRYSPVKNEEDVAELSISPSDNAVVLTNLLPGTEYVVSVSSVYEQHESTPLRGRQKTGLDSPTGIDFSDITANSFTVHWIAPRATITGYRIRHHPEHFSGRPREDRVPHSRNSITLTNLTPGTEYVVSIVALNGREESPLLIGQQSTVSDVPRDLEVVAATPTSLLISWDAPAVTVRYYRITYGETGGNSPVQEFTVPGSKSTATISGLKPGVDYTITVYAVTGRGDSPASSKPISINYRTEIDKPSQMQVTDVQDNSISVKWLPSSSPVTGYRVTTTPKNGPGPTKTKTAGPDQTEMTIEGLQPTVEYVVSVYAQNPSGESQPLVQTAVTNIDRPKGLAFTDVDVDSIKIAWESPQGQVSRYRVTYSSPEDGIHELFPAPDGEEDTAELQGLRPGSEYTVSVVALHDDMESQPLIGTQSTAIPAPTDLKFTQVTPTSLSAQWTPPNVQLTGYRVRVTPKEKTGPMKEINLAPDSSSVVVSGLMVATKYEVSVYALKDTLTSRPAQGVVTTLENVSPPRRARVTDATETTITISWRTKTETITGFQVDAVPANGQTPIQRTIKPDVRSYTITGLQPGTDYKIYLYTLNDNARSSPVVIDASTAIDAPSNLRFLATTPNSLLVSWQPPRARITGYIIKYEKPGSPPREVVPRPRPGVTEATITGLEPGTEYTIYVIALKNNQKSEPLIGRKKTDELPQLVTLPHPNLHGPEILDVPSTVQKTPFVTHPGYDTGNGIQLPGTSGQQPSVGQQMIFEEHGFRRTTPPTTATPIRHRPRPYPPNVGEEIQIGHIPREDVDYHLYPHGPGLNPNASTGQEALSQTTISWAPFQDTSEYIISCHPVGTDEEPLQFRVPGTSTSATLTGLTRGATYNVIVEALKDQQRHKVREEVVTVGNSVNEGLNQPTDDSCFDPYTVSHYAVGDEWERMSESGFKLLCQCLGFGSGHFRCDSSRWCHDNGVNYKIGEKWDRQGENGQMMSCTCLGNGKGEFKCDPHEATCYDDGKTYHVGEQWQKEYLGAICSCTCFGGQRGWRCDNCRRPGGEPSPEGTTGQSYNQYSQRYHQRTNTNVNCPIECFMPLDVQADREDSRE

Sequence of UniProt P02452 (P02452 162-1218, chain 1 of 2): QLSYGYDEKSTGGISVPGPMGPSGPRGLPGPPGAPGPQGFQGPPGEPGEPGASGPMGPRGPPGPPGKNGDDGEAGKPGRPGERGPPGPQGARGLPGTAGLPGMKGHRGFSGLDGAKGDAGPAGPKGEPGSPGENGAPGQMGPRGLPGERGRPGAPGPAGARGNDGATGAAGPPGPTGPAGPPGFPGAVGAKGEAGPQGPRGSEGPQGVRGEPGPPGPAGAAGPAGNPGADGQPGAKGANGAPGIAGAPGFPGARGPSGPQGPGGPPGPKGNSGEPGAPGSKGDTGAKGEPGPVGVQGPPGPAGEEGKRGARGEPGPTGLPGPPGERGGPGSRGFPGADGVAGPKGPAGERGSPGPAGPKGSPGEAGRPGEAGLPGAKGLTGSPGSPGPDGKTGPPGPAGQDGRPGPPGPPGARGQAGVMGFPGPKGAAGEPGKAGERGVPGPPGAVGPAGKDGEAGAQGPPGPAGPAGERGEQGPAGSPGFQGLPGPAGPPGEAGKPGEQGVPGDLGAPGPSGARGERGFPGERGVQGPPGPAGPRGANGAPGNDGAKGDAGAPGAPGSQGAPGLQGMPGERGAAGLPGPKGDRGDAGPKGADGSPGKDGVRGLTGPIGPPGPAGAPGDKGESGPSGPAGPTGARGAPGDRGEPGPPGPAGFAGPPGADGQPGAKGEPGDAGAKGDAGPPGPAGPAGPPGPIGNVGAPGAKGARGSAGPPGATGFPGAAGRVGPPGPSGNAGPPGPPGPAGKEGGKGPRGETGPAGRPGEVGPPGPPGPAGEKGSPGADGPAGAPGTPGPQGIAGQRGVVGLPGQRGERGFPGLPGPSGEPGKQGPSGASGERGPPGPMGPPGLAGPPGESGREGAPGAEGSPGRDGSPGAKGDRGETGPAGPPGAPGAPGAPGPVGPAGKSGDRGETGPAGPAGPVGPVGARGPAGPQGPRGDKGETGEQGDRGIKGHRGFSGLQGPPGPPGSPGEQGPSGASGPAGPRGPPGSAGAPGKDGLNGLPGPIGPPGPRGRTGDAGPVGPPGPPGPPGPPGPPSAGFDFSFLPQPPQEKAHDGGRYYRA
Sequence of UniProt P02452 (P08123 80-1119, chain 2 of 2, further chain): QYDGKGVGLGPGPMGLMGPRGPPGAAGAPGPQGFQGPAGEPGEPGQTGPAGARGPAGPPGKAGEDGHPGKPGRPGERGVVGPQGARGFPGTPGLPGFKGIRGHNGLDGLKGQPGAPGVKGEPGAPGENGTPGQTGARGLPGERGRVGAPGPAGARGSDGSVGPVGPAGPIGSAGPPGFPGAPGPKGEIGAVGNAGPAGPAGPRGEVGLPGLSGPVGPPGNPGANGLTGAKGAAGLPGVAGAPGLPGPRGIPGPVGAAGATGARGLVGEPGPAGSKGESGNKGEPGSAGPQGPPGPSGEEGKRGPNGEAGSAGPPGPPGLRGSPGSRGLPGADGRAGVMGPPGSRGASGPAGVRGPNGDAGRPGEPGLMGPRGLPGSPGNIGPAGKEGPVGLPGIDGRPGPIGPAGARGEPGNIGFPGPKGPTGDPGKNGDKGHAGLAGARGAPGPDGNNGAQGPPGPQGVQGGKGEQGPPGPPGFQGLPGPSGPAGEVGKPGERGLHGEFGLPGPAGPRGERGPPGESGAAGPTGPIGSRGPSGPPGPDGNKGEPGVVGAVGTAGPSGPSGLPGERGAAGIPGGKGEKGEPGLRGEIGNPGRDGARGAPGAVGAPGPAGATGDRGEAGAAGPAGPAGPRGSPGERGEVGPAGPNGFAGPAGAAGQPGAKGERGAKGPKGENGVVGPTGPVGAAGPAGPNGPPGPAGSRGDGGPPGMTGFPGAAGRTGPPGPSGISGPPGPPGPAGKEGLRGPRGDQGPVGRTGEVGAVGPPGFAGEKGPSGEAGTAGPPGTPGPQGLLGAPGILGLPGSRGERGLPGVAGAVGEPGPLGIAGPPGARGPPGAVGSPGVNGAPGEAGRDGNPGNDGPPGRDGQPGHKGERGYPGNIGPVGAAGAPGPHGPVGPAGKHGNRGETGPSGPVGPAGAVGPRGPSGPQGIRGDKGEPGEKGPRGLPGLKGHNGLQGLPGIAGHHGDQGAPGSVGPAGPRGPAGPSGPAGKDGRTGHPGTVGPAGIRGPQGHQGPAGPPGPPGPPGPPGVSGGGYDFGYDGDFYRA

Consider LOX (from UniProt P28300), for which the Kd (usually the concentration at which binding is half-saturated) in data set [1] is 1.9 nM; in data set [2], 5.2 nM; in data set [3], 2.5 nM.
